Measured values: the supplement of paper PMC6757056
± gives the standard deviation of the averaged measurements.

B1: library; a variant is named by its letters at N, in order (parent)
chain: GCUGUCACCGGUGCUUGGUACGUUAUAUUCAGCCGGUCUGAUGAGUCUNNNNNNAGACGAAACAGC

Experiments:
[1] = variants of: B1; test: normalized RNA/DNA level without ligand (relative to sTRSVctl = 100) (log10 (% of sTRSVctl)); HEK293T overexpressing SLC46A1; higher = less ribozyme self-cleavage, higher mRNA level; conditions: without (6R,S)-folinic acid; ligand present: no
Outline: (§1)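 Library plasmids encoding reporter-linked ribozyme switches (mCherry, or eGFP for some folinic acid experiments) were transfected into HEK293T at 4 µg per 6-well well. Ligand, when used, was added 1 h before transfection. Total RNA was extracted with EDTA 72 h later, then reverse-transcribed, amplified, barcoded and sequenced. RNA level was RNA reads over DNA reads, divided by a spiked-in non-cleaving control (or the top 25 sequences), ×100, log10; only sequences with ≥100 DNA reads were kept.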

[2] = variants of: B1; test: normalized RNA/DNA level with ligand (relative to sTRSVctl = 100) (log10 (% of sTRSVctl)); HEK293T overexpressing SLC46A1; ligand concentration (+) RNA-Seq: 6 mM; higher = less ribozyme self-cleavage, higher mRNA level; conditions: with (6R,S)-folinic acid; ligand present: yes
Outline: as §1

Variant	normalized RNA/DNA level without ligand (log10) [1]	normalized RNA/DNA level with ligand (log10) [2]
GGUCUA	2.01 ± 0.021	2.03 ± 0.029
CUACUG	2.0146 ± 0.00058	2.04 ± 0.024
CUACUA	2.02 ± 0.021	2.05 ± 0.04
CUACUC	2.05 ± 0.021	2.03 ± 0.039
CGUUGA	2.013 ± 0.013	2.016 ± 0.0024
CGUUGG	1.931 ± 0.019	2.0206 ± 0.0013
CGUUGU	2.004 ± 0.0073	2 ± 0.047
UGUCUC	2.06 ± 0.022	2.052 ± 0.02
UGUCUU	1.978 ± 0.016	2.03 ± 0.022
UGUCUA	1.991 ± 0.0035	2.02 ± 0.043
AGUCCU	2.048 ± 0.0074	2.05 ± 0.029
AGUCCA	2.022 ± 0.0089	2.0202 ± 0.002
AGUCCG	1.988 ± 0.0076	2 ± 0.025
AGUCCC	2.019 ± 0.0039	2.046 ± 0.0072
CGUGAU	1.96 ± 0.0081	1.993 ± 0.0086
CGUGAG	1.97 ± 0.029	1.99 ± 0.028
GGUAUC	2.011 ± 0.008	2.0104 ± 0.001
GGUAUU	2.002 ± 0.014	1.98 ± 0.032
AUACGC	2.015 ± 0.018	1.998 ± 0.013
AUACGA	1.9851 ± 0.0003	2.01 ± 0.043
AUACGU	2.005 ± 0.0023	2.026 ± 0.01
AUAAUC	2.024 ± 0.015	2 ± 0.032
AUAAUU	1.99 ± 0.025	2.03 ± 0.038
AUAAUG	1.91 ± 0.021	2 ± 0.043

Variant	normalized RNA/DNA level without ligand (log10) [1]	normalized RNA/DNA level with ligand (log10) [2]
CGUUCU	2.07 ± 0.034	2.03 ± 0.034
CGUUCC	2.07 ± 0.026	2.028 ± 0.017
CGUUCG	2.0527 ± 1.7e-05	2.04 ± 0.047
CGUUCA	2.024 ± 0.004	2.044 ± 0.017
UGUGCC	2.023 ± 0.019	2.06 ± 0.029
UGUGCA	1.9059 ± 0.0006	1.99 ± 0.04
UGUGUC	2.041 ± 0.019	2.004 ± 0.012
UGUGUU	1.907 ± 0.019	1.966 ± 0.019
AGUGCG	1.849 ± 0.017	2.01 ± 0.062
AGUGCC	2.072 ± 0.014	2.07 ± 0.035
AGUGCA	1.97 ± 0.025	1.996 ± 0.016
AGUGCU	2.01 ± 0.0069	2.03 ± 0.027
UGUCCG	1.86 ± 0.022	1.99 ± 0.033
UGUCCC	2.06 ± 0.024	2.033 ± 0.017
UGUCCU	2.03 ± 0.034	2.07 ± 0.026
UGUUAU	1.95 ± 0.028	1.975 ± 0.0073
AGUUGG	1.87 ± 0.022	1.994 ± 0.015
GUACUG	2.002 ± 0.013	2.015 ± 0.017
CUAAAU	1.977 ± 0.0084	1.99 ± 0.034
CUAAAC	1.983 ± 0.006	1.992 ± 0.018
GGUCGG	2.053 ± 0.02	2.07 ± 0.062
GGUCGU	2.034 ± 0.015	2.029 ± 0.0084
GGUCGA	2.0344 ± 0.00085	2.01 ± 0.026
GGUCGC	1.952 ± 0.012	2 ± 0.032

Variant	normalized RNA/DNA level without ligand (log10) [1]	normalized RNA/DNA level with ligand (log10) [2]
CGUCCA	2.0366 ± 0.0014	2.02 ± 0.035
CGUCCC	2.003 ± 0.0083	1.95 ± 0.037
CGUCCU	2.11 ± 0.011	2.06 ± 0.031
CGUCCG	2.04 ± 0.026	2.037 ± 0.015
CGUGCA	2.01 ± 0.022	2.03 ± 0.021
CGUGCG	1.974 ± 0.0043	1.99 ± 0.031
CGUGCU	2.05 ± 0.012	2.05 ± 0.052
CGUGCC	2.068 ± 0.0025	2.01 ± 0.036
GUAAAG	1.94 ± 0.015	2 ± 0.027
GUAACU	2.03 ± 0.016	2.03 ± 0.036
GUAACG	1.997 ± 0.0059	2 ± 0.039
GUAACA	2.016 ± 0.0052	1.98 ± 0.042
GGUGAA	1.989 ± 0.0081	2.011 ± 0.02
GGUGAG	1.908 ± 0.012	1.99 ± 0.01
UGUGGC	1.97 ± 0.022	2.019 ± 0.0063
GUACGU	1.986 ± 0.006	2.03 ± 0.049
GUACGC	2.01 ± 0.029	2.03 ± 0.026
GGUUGG	2.042 ± 0.016	2.03 ± 0.031
GGUUGU	2.023 ± 0.0028	2.04 ± 0.051
GGUUCG	2.0485 ± 5.4e-05	2.06 ± 0.048
GGUUCU	2.0626 ± 0.0019	2.05 ± 0.049
GGUUCA	1.99 ± 0.02	2 ± 0.036
GGUUCC	2.028 ± 0.018	2.03 ± 0.037
GUACAU	1.965 ± 0.005	2.01 ± 0.034

Variant	normalized RNA/DNA level without ligand (log10) [1]	normalized RNA/DNA level with ligand (log10) [2]
GUACAA	1.966 ± 0.013	1.986 ± 0.011
AUACCC	2.023 ± 0.003	2.01 ± 0.023
AUACCG	2.013 ± 0.013	2.04 ± 0.042
AUACCU	2.0169 ± 0.00086	2.025 ± 0.011
UUAAAU	1.974 ± 0.0099	2.01 ± 0.024
AUAACG	1.9455 ± 0.0011	2.02 ± 0.033
AGUAUU	2 ± 0.011	2.032 ± 0.018
AGUAUA	1.9846 ± 0.0011	2.02 ± 0.0084
AGUAUC	2.059 ± 0.0016	2.03 ± 0.0073
AGUCAG	1.975 ± 0.016	2.02 ± 0.042
AGUCAC	2.02 ± 0.024	2.02 ± 0.026
AGUCAU	1.998 ± 0.0079	2.0062 ± 1.5e-05
UGUUUC	2.063 ± 0.0072	2.04 ± 0.027
UGUUUA	1.978 ± 0.0041	2.055 ± 0.0056
GGUCCU	2.09 ± 0.0075	2.09 ± 0.062
GGUCCG	2.04 ± 0.018	2.03 ± 0.03
GGUCCC	2.043 ± 0.016	2.01 ± 0.027
UGUAUA	1.953 ± 0.0013	2.01 ± 0.022
GGUGUA	1.972 ± 0.01	2.01 ± 0.02
GGUGUG	1.98 ± 0.014	2.04 ± 0.034
GGUGUC	2.051 ± 0.019	2.01 ± 0.028
GGUGUU	2.029 ± 0.0064	2.02 ± 0.041
UGUGAC	1.949 ± 0.007	1.99 ± 0.016
UGUGAU	1.903 ± 0.016	2 ± 0.027

Variant	normalized RNA/DNA level without ligand (log10) [1]	normalized RNA/DNA level with ligand (log10) [2]
CGUAUC	2.09 ± 0.0065	2.07 ± 0.023
CGUAUG	2.016 ± 0.012	2.01 ± 0.016
UUAACC	2.016 ± 0.0049	2 ± 0.025
UUAACU	2.041 ± 0.0026	2.018 ± 0.0049
UUAACG	1.934 ± 0.018	1.984 ± 0.019
UUAACA	1.998 ± 0.0047	1.971 ± 0.01
AGUCGC	2.012 ± 0.015	1.98 ± 0.031
AGUCGG	1.938 ± 0.0053	2 ± 0.053
AGUUCU	2.02 ± 0.025	2.014 ± 0.011
AGUUCC	2.06 ± 0.047	2.04 ± 0.059
AGUUCG	1.953 ± 0.015	2 ± 0.025
UUAAGC	2.022 ± 0.0089	2.027 ± 0.016
UUAAGU	1.996 ± 0.014	2.024 ± 0.0034
CGUCAG	2.001 ± 0.013	2.057 ± 0.013
CGUCAA	1.98 ± 0.022	1.974 ± 0.018
CGUCAC	2.032 ± 0.0083	1.99 ± 0.049
CGUCAU	2.01 ± 0.047	2 ± 0.021
AGUGAG	1.767 ± 0.0046	1.96 ± 0.028
AGUGAA	1.933 ± 0.0071	1.99 ± 0.033
AGUGAC	2.006 ± 0.0076	1.99 ± 0.04
